Measurements taken from patent US20090258375A1.
Where two headings read alike, the source gives them in different places.

What was measured:
[1] = target: recombinant porcine PAG-2 (FLAG-tagged) (porcine) (UniProt Q29079); experiment: immuno-trap protease assay on crude insect cell lysate (second row)
[2] = target: recombinant bovine PAG-12 (fusion protein with the FLAG peptide) (bovine); experiment: as above
[3] = target: recombinant bovine PAG-2 (fusion protein with the FLAG peptide) (bovine) (UniProt Q28057); experiment: as above
[4] = target: recombinant porcine PAG-2 (FLAG-tagged) (porcine) (UniProt Q29079); experiment: immuno-trap protease assay on crude insect cell lysate
[5] = target: recombinant bovine PAG-12 (fusion protein with the FLAG peptide) (bovine); experiment: as above
[6] = target: recombinant bovine PAG-2 (fusion protein with the FLAG peptide) (bovine) (UniProt Q28057); experiment: as above
[7] = target: control insect cell lysate (sf9 cells infected with empty Baculovirus); experiment: immuno-trap protease assay, control lysate
[8] = target: recombinant equine-TSH-beta (equine) (UniProt Q28376); experiment: immuno-trap protease assay, anti-FLAG with TSH-beta; TSH-beta has no proteolytic activity, so the reading is background and does not tell whether it was trapped
[9] = target: recombinant porcine PAG-2 (FLAG-tagged) (porcine) (UniProt Q29079); experiment: immuno-trap protease assay, anti-FLAG with poPAG-2 lysate as positive control
[10] = target: control insect cell lysate (sf9 cells infected with empty Baculovirus); experiment: immuno-trap protease assay, control lysate (second row)
[11] = target: bovine serum albumin (bovine) (UniProt P02769); experiment: immuno-trap protease assay, 1 ug rabbit immunoglobulins coated, background control, 50 ng blank column
[12] = system: T1, fluorescent cathepsin D/E substrate MOCac-Gly-Lys-Pro-Ile-Leu-Phe-Phe-Arg-Leu-Lys(Dnp)-D-Arg-NH2
T1 sequence: GKPILFFRLK

[13] = target: T1, fluorescent cathepsin D/E substrate MOCac-Gly-Lys-Pro-Ile-Leu-Phe-Phe-Arg-Leu-Lys(Dnp)-D-Arg-NH2; experiment: cell-based or functional assay
[14] = target: T2, fluorescent cathepsin D/E substrate MOCac-Gly-Lys-Pro-Ile-Leu-Phe-Phe-Arg-Leu-Lys(Dnp)-D-Arg-NH2
T2 chain: GKPILFFRLK

UniProt P02769, sequence (P02769 25-607 limits assumed): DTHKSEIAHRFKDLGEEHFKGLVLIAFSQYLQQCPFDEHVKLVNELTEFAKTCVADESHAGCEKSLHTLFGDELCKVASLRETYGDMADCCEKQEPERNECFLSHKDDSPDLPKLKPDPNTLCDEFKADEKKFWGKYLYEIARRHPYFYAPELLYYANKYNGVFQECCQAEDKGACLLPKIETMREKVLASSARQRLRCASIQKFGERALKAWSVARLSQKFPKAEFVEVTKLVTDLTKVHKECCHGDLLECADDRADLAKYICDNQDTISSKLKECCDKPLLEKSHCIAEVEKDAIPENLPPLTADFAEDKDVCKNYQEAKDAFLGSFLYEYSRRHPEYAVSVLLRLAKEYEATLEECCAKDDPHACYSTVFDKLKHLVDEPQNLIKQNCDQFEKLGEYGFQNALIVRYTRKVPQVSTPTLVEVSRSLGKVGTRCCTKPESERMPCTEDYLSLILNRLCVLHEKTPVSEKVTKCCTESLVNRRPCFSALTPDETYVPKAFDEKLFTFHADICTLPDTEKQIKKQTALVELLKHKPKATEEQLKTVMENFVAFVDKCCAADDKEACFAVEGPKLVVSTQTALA

With “anti-FLAG monoclonal antibody (M2; Sigma)” the relative fluorescence of released product (relative fluorescence) [1] was 92300, the relative fluorescence of released product (relative fluorescence) [2] was 23000 and the relative fluorescence of released product (relative fluorescence) [3] was 26500. For the same molecule, the relative fluorescence of released product (relative fluorescence) [4] was 96800, the relative fluorescence of released product (relative fluorescence) [5] was 42300 and the relative fluorescence of released product (relative fluorescence) [6] was 27000. It also gave a relative fluorescence of released product (relative fluorescence) [7] of 4120, a relative fluorescent product release (relative fluorescence) [8] of 47000 and a relative fluorescent product release (relative fluorescence) [9] of 97400. For the same molecule, the relative fluorescence of released product (relative fluorescence) [10] was 7760.

“rabbit immunoglobulins (background control) (antibody)” was tested, and the relative fluorescence (counts) of released product [11] was 6040 counts.

For “recombinant boPAG-6 (FLAG epitope tag fusion)”, the proteolytic activity [12] was “recombinant boPAG-6, -8, -9 and -10 have proteolytic activity with acidic pH optima”, the relative fluorescent product release, anti-FLAG immuno-trap protease assay, pH 3.0 (relative fluorescence) [12] was 84000 and the relative fluorescent product release, anti-FLAG immuno-trap protease assay, pH 4.0 (relative fluorescence) [12] was 77900. For the same molecule, the relative fluorescent product release, anti-FLAG immuno-trap protease assay, pH 5.0 (relative fluorescence) [12] was 66300, the relative fluorescent product release, anti-FLAG immuno-trap protease assay, pH 6.0 (relative fluorescence) [12] was 31300 and the relative fluorescent product release, anti-FLAG immuno-trap protease assay, pH 7.0 (relative fluorescence) [12] was 24300.

For “recombinant boPAG-8 (FLAG epitope tag fusion)”, the proteolytic activity [12] was “recombinant boPAG-6, -8, -9 and -10 have proteolytic activity with acidic pH optima”, the relative fluorescent product release, anti-FLAG immuno-trap protease assay, pH 3.0 (relative fluorescence) [12] was 80600 and the relative fluorescent product release, anti-FLAG immuno-trap protease assay, pH 4.0 (relative fluorescence) [12] was 63600. The relative fluorescent product release, anti-FLAG immuno-trap protease assay, pH 5.0 (relative fluorescence) [12] was 56100, the relative fluorescent product release, anti-FLAG immuno-trap protease assay, pH 6.0 (relative fluorescence) [12] was 31900 and the relative fluorescent product release, anti-FLAG immuno-trap protease assay, pH 7.0 (relative fluorescence) [12] was 26400.

In the case of “recombinant boPAG-9 (FLAG epitope tag fusion)”, the proteolytic activity [12] is reported as “recombinant boPAG-6, -8, -9 and -10 have proteolytic activity with acidic pH optima”, the relative fluorescent product release, anti-FLAG immuno-trap protease assay, pH 3.0 (relative fluorescence) [12] is reported as 72100 and the relative fluorescent product release, anti-FLAG immuno-trap protease assay, pH 4.0 (relative fluorescence) [12] is reported as 55000. It also gave a relative fluorescent product release, anti-FLAG immuno-trap protease assay, pH 5.0 (relative fluorescence) [12] of 48100, a relative fluorescent product release, anti-FLAG immuno-trap protease assay, pH 6.0 (relative fluorescence) [12] of 27800 and a relative fluorescent product release, anti-FLAG immuno-trap protease assay, pH 7.0 (relative fluorescence) [12] of 24400.

For “recombinant boPAG-10 (FLAG epitope tag fusion)”, the proteolytic activity [12] was “recombinant boPAG-6, -8, -9 and -10 have proteolytic activity with acidic pH optima”, the relative fluorescent product release, anti-FLAG immuno-trap protease assay, pH 3.0 (relative fluorescence) [12] was 52100 and the relative fluorescent product release, anti-FLAG immuno-trap protease assay, pH 4.0 (relative fluorescence) [12] was 42700. For the same molecule, the relative fluorescent product release, anti-FLAG immuno-trap protease assay, pH 5.0 (relative fluorescence) [12] was 38800, the relative fluorescent product release, anti-FLAG immuno-trap protease assay, pH 6.0 (relative fluorescence) [12] was 26500 and the relative fluorescent product release, anti-FLAG immuno-trap protease assay, pH 7.0 (relative fluorescence) [12] was 23600.

“recombinant boPAG-17 (FLAG epitope tag fusion)” gave a relative fluorescent product release, anti-FLAG immuno-trap protease assay, pH 3.0 (relative fluorescence) [13] of 34600, a relative fluorescent product release, anti-FLAG immuno-trap protease assay, pH 4.0 (relative fluorescence) [13] of 28600 and a relative fluorescent product release, anti-FLAG immuno-trap protease assay, pH 5.0 (relative fluorescence) [13] of 28500. It also gave a relative fluorescent product release, anti-FLAG immuno-trap protease assay, pH 6.0 (relative fluorescence) [13] of 23300 and a relative fluorescent product release, anti-FLAG immuno-trap protease assay, pH 7.0 (relative fluorescence) [13] of 23700.

“recombinant boPAG-19 (FLAG epitope tag fusion)” was tested, and the relative fluorescent product release, anti-FLAG immuno-trap protease assay, pH 3.0 (relative fluorescence) [13] was 40300, the relative fluorescent product release, anti-FLAG immuno-trap protease assay, pH 4.0 (relative fluorescence) [13] was 32500 and the relative fluorescent product release, anti-FLAG immuno-trap protease assay, pH 5.0 (relative fluorescence) [13] was 32100. It also gave a relative fluorescent product release, anti-FLAG immuno-trap protease assay, pH 6.0 (relative fluorescence) [13] of 24300 and a relative fluorescent product release, anti-FLAG immuno-trap protease assay, pH 7.0 (relative fluorescence) [13] of 23300.

In the case of “recombinant boPAG-20 (FLAG epitope tag fusion)”, the relative fluorescent product release, anti-FLAG immuno-trap protease assay, pH 3.0 (relative fluorescence) [13] is reported as 38600, the relative fluorescent product release, anti-FLAG immuno-trap protease assay, pH 4.0 (relative fluorescence) [13] is reported as 31300 and the relative fluorescent product release, anti-FLAG immuno-trap protease assay, pH 5.0 (relative fluorescence) [13] is reported as 31400. It also gave a relative fluorescent product release, anti-FLAG immuno-trap protease assay, pH 6.0 (relative fluorescence) [13] of 24500 and a relative fluorescent product release, anti-FLAG immuno-trap protease assay, pH 7.0 (relative fluorescence) [13] of 23800.

With “recombinant bovine PAG-12 (fusion protein with the FLAG peptide)” the “proteolytic activity (% relative activity)” value [12] was “maximal activity for boPAG-12 and poPAG-2 was at pH 3.5”.

“recombinant equine-TSH-beta (from UniProt Q28376 21-138)” showed a relative fluorescent product release, anti-FLAG immuno-trap protease assay, pH 3.0 (negative control) (relative fluorescence) [13] of 38300, a relative fluorescent product release, anti-FLAG immuno-trap protease assay, pH 4.0 (negative control) (relative fluorescence) [13] of 33900 and a relative fluorescent product release, anti-FLAG immuno-trap protease assay, pH 5.0 (negative control) (relative fluorescence) [13] of 35000. The relative fluorescent product release, anti-FLAG immuno-trap protease assay, pH 6.0 (negative control) (relative fluorescence) [13] was 28200 and the relative fluorescent product release, anti-FLAG immuno-trap protease assay, pH 7.0 (negative control) (relative fluorescence) [13] was 26600.

B1: recombinant bovine PAG-2 (fusion protein with the FLAG peptide) (protein)
chain: DYKDDDDKIVILPLKKMKTLRETLREKNLLNNFLEEQAYRLSKNDSKITIHPLRNYLDTAYVGNITIGTPPQEFRVVFDTGSANLWVPCITCTSPACYTHKTFNPQNSSSFREVGSPITIFYGSGIIQGFLGSDTVRIGNLVSPEQSFGLSLEEYGFDSLPFDGILGLAFPAMGIEDTIPIFDNLWSHGAFSEPVFAFYLNTNKPEGSVVMFGGVDHRYYKGELNWIPVSQTSHWQISMNNISMNGTVTACSCGCEALLDTGTSMIYGPTKLVTNIHKLMNARLENSEYVVSCDAVKTLPPVIFNINGIDYPLRPQAYIIKIQNSCRSVFQGGTENSSLNTWILGDIFLRQYFSVFDRKNRRIGLAPAV
For B1, the “proteolytic activity (% relative activity)” value [14] was “Maximal activity for boPAG-2 was at pH 4”.

B2: recombinant porcine PAG-2 (FLAG-tagged) (protein)
chain: DYKDDDDKLVMIPLTKVKSVRESLREKGLLKNFLKEHPYNMIQNLLSKNSSHVQKFSYQPLRNYLDMVYVGNISIGTPPQQFSVVFDTGSSDLWVPSIYCKSKACVTHRSFNPSHSSTFHDRGKSIKLEYGSGKMSGFLGQDTVRIGQLTSTGQAFGLSKEETGKAFEHAIFDGILGLAYPSIAIKGTTTVIDNLKKQDQISEPVFAFYLSSDKEEGSVVMFGGVDKKYYKGDLKWVPLTQTSYWQIALDRITCRGRVIGCPRGCQAIVDTGTSMLHGPSKAVAKIHSLIKHFEKEYVVPCNARKALPDIVFTINNVDYPVPAQAYIRKYVVPCNARKALPDIVFTINNVDYPVPAQAYIRKNANNNRCYSTFEDIMDTLNQREIWILGDVFLRLYFTVYDEGQNRIGLAQAT
B2 was tested, and the “proteolytic activity (% relative activity)” value [14] was “maximal activity for boPAG-12 and poPAG-2 was at pH 3.5”.
